Here are results for one substance from PMC3909728.

The data set deals with eVP35 IID WT (Ebola virus (EBOV)). The data set is described as follows: filter binding.

dsRNA returned a binding signal (fraction bound) of less than 0.3.
